Literature values in publication PMC4437577.

Target: PR-B (Homo sapiens) (UniProt P06401)
Experiment: analytical ultracentrifugation

Kd: 8.8 µM
Substance: PR-B (from UniProt P06401)
